Laboratory results taken from US8889621B2, “Inhibiting binding of FGF23 to the binary FGFR-Klotho complex for the treatment of hypophosphatemia” (New York University, priority 2009, dated 2014).
Entries after “also recorded” stand apart in the source; their conditions may differ.

T1: binary FGFR1c-Klotho complex (UniProt O35082+P11362)
T1 construct: The ectodomain of murine Klotho (A35 to K982) was purified from culture media; FLAG (C); made in house; host or cells: E. coli (FGFR1c, FGF23); HEK293 (Klotho ectodomain)
T1 sequence (P11362 142-365): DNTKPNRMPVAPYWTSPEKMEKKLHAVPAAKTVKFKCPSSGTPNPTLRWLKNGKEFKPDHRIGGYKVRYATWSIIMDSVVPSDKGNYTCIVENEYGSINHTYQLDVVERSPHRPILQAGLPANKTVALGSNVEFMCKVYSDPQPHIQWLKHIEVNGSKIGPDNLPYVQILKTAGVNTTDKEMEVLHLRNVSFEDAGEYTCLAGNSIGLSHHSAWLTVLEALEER
T1 sequence (O35082 35-982): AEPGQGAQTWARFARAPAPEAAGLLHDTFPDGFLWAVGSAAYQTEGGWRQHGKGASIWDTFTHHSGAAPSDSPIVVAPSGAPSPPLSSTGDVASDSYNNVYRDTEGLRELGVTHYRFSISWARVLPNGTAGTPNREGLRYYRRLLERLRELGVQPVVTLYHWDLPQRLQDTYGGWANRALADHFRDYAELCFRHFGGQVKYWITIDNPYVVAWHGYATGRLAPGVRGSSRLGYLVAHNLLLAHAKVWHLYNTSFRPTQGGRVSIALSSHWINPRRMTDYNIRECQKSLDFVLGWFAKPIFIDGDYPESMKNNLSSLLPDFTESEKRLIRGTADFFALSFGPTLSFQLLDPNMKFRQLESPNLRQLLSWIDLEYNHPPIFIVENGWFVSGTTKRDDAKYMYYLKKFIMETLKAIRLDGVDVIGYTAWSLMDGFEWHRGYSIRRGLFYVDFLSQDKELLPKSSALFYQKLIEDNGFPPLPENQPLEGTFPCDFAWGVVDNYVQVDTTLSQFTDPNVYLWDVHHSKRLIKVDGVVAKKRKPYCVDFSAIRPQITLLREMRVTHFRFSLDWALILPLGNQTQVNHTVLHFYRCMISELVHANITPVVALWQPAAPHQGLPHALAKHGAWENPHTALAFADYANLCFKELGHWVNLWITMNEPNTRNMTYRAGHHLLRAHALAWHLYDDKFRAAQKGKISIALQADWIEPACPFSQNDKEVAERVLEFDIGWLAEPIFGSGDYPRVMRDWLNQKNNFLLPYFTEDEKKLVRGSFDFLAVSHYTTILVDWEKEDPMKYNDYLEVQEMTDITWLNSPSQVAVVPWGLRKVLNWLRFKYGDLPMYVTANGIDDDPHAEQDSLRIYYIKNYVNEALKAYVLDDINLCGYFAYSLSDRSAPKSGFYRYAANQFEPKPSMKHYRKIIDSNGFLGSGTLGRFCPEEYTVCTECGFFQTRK

T2: FGFR1c (Homo sapiens, UniProt P11362)
T2 construct: made in house; host or cells: E. coli
T2 sequence (P11362 142-365): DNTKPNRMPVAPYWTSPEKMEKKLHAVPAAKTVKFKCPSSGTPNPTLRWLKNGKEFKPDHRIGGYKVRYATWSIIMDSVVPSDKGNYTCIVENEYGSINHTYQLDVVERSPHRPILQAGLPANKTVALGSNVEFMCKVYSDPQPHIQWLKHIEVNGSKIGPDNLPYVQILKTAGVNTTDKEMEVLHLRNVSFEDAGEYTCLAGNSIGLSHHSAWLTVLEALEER


Tests used:
[1] = biological target: T1, binary FGFR1c-Klotho complex; assay: SPR competition: FGFR1c-Klotho binding to immobilized FGF23^28-251; design: species or system human FGFR1c, murine Klotho; conditions: FGF21^168-209 at molar ratios of 6:1 and 10:1
Method: A variety of interaction or binding assays can be used to determine that an agent specifically binds the binary FGFR-Klotho complex, such as the SPR interaction analysis described below. One aspect of the present invention utilizes SPR analysis of FGF23 protein/peptide binding to the binary FGFR-Klotho complex. The SPR analysis involved FGF23 protein/peptide immobilization by amine coupling on flow channels of a chip. Proteins were injected over the chip at a flow rate of 50 μl min^−1, and at the end of each protein injection (180 s), HBS-EP buffer (10 mM HEPES-NaOH, pH 7.4, 150 mM NaCl, 3 mM EDTA, 0.005% (v/v) polysorbate 20; 50 μl min^−1) was flowed over the chip to monitor dissociation for 180 s. The chip surface was then regenerated by injecting 50 μl of 2.0 M NaCl in 10 mM sodium acetate, pH 4.5. […] For each protein injection over a FGF23 protein/peptide chip, the nonspecific responses from the FHF1B control flow channel were subtracted from the responses recorded for the flow channel onto which FGF23 protein/peptide was immobilized. To analyze FGF23 binding to the binary FGFR1c-Klotho complex, FGF23^28-251 was coupled to a chip, and increasing concentrations of 1:1 complex of the ectodomains of FGFR1c and Klotho in HBS-EP buffer were passed over the chip. To measure binding of the C-terminal tail of FGF23 to the binary FGFR1c-Klotho complex, FGF23^180-251 was immobilized on a chip, and increasing concentrations of 1:1 complex of the ectodomains of FGFR1c and Klotho in HBS-EP buffer were passed over the chip. To examine whether the C-terminal tail of FGF23 can compete with full-length FGF23 for binding to the binary FGFR1c-Klotho complex, FGF23^28-251 was immobilized on a chip. Increasing concentrations of FGF23^180-251 were mixed with a fixed concentration of 1:1 complex of the ectodomains of FGFR1c and Klotho in HBS-EP buffer, and the mixtures were passed over the chip. As a control, competition of FGF23 in solution with immobilized FGF23 for binding to the binary FGFR1c-Klotho complex was studied. Increasing concentrations of FGF23^28-251 were mixed with a fixed concentration of 1:1 complex of the ectodomains of FGFR1c and Klotho in HBS-EP buffer, and the mixtures were passed over the FGF23 chip. Competition of the FGF23 C-terminal tail peptide with full-length FGF23 for binding to the binary FGFR1c-Klotho complex was also studied using the “reverse” SPR assay format, where FGF23^180-251 was immobilized on a chip and mixtures of a fixed concentration of 1:1 complex of the ectodomains of FGFR1c and Klotho with increasing concentrations of FGF23^28-251 were passed over the chip. As a control, competition of FGF23 C-terminal tail peptide in solution with immobilized FGF23 C-terminal tail peptide for binding to the binary FGFR1c-Klotho complex was analyzed. Increasing concentrations of FGF23^180-251 were mixed with a fixed concentration of 1:1 complex of the ectodomains of FGFR1c and Klotho in HBS-EP buffer, and the mixtures were passed over the FGF23^180-251 chip. To verify the specificity of the interaction between the FGF23 C-terminal tail and the FGFR1c-Klotho complex, FGF23^28-251 was immobilized on a chip. Increasing concentrations of FGF21^168-209 were mixed with a fixed concentration of 1:1 complex of the ectodomains of FGFR1c and Klotho in HBS-EP buffer, and the mixtures were passed over the chip. In addition, the ability of the FGF23 C-terminal tail peptide to interfere with binary complex formation between βKlotho and either FGF19 or FGF21 was tested, as was its ability to interfere with ternary complex formation between βKlotho, FGFR, and either FGF19 or FGF21. FGF19^23-216 and FGF21^29-209 were immobilized on two flow channels of a chip. FGF23^180-251 and the ectodomain of βKlotho were mixed at a molar ratio of 2:1, and the mixture was injected over the chip. Next, FGF23^180-251 and the 1:1 complex of the ectodomains of FGFR1c and βKlotho were mixed at a molar ratio of 10:1, and the mixture was passed over the FGF19/FGF21 chip. […]

[2] = biological target: T2, FGFR1c; assay: SPR: FGFR1c ectodomain passed over immobilized Klotho ectodomain; type: binding; conditions: 25° C., HBS-EP buffer, read-out: dissociation constant (KD) of the FGFR1c-Klotho interaction
Method: Surface plasmon resonance (SPR) spectroscopy experiments were performed on a Biacore 2000 instrument (Biacore AB), and FGF23-FGFR1c-Klotho interactions were studied at 25° C. in HBS-EP buffer (10 mM HEPES-NaOH, pH 7.4, 150 mM NaCl, 3 mM EDTA, 0.005% (v/v) polysorbate 20). Proteins were immobilized by amine coupling on flow channels of research grade CM5 chips (Biacore AB). Proteins were injected over a CM5 chip at a flow rate of 50 μl min^−1, and at the end of each protein injection (180 s), HBS-EP buffer (50 μl min^−1) was flowed over the chip to monitor dissociation for 180 s. The chip surface was then regenerated by injecting 50 μl of 2.0 M NaCl in 10 mM sodium acetate, pH 4.5. […] For each protein injection over a Klotho chip, the nonspecific responses from the β-glucuronidase control flow channel were subtracted from the responses recorded for the Klotho flow channel. Similarly, for each protein injection over a FGF chip, the nonspecific responses from the FHF1B control flow channel were subtracted from the responses recorded for the FGF flow channel. […]
To analyze Klotho binding to FGFR1c, Klotho ectodomain was immobilized on a chip (˜29-35 fmole/mm^2 of flow channel). […] Maximal equilibrium responses were plotted against the concentrations of FGFR1c ectodomain (FIG. 1B), and from the fitted saturation binding curve the equilibrium dissociation constant (KD) was calculated. […]

Kd [2] | Molecule | inhibition of FGFR1c-Klotho binding to immobilized FGF23^28-251 [1]
– | FGF21^168-209: 42-amino acid long C-terminal tail of FGF21 (P168 to S209), expressed in E. coli (PGLPPALPEPPGILAPQPPDVGSSDPLSMVGPSQGRSPSYAS; left off: small tags and cut ends) [reference compound] | failed to inhibit; also recorded: no inhibition
72 nM | Klotho: ectodomain of murine Klotho (A35 to K982) purified from HEK293 culture media (protein, left off: small tags and cut ends, ectodomain of murine Klotho (A35 to K982) purified from HEK293 culture media) AEPGQGAQTWARFARAPAPEAAGLLHDTFPDGFLWAVGSAAYQTEGGWRQHGKGASIWDTFTHHSGAAPSDSPIVVAPSGAPSPPLSSTGDVASDSYNNVYRDTEGLRELGVTHYRFSISWARVLPNGTAGTPNREGLRYYRRLLERLRELGVQPVVTLYHWDLPQRLQDTYGGWANRALADHFRDYAELCFRHFGGQVKYWITIDNPYVVAWHGYATGRLAPGVRGSSRLGYLVAHNLLLAHAKVWHLYNTSFRPTQGGRVSIALSSHWINPRRMTDYNIRECQKSLDFVLGWFAKPIFIDGDYPESMKNNLSSLLPDFTESEKRLIRGTADFFALSFGPTLSFQLLDPNMKFRQLESPNLRQLLSWIDLEYNHPPIFIVENGWFVSGTTKRDDAKYMYYLKKFIMETLKAIRLDGVDVIGYTAWSLMDGFEWHRGYSIRRGLFYVDFLSQDKELLPKSSALFYQKLIEDNGFPPLPENQPLEGTFPCDFAWGVVDNYVQVDTTLSQFTDPNVYLWDVHHSKRLIKVDGVVAKKRKPYCVDFSAIRPQITLLREMRVTHFRFSLDWALILPLGNQTQVNHTVLHFYRCMISELVHANITPVVALWQPAAPHQGLPHALAKHGAWENPHTALAFADYANLCFKELGHWVNLWITMNEPNTRNMTYRAGHHLLRAHALAWHLYDDKFRAAQKGKISIALQADWIEPACPFSQNDKEVAERVLEFDIGWLAEPIFGSGDYPRVMRDWLNQKNNFLLPYFTEDEKKLVRGSFDFLAVSHYTTILVDWEKEDPMKYNDYLEVQEMTDITWLNSPSQVAVVPWGLRKVLNWLRFKYGDLPMYVTANGIDDDPHAEQDSLRIYYIKNYVNEALKAYVLDDINLCGYFAYSLSDRSAPKSGFYRYAANQFEPKPSMKHYRKIIDSNGFLGSGTLGRFCPEEYTVCTECGFFQTRK | –
